B1: phage clone WEADCAWHLGELVWCTKVEE (peptide)
peptide: WEADCAWHLGELVWCTKVEE
notes: M13/gIII phage display; Secondary Optimization

molecular target: T1, IgG-Fc (UniProt P01857-1 108-330 = IgG part, limits assumed); experiment: phage ELISA, M13/gIII display
T1 construct: domain: IgG-Fc; also called biotinylated-IgG-Fc; biotin-IgG-Fc

Binder | EC50
B1 | 7 nM

molecular target: rat albumin (rat, UniProt P02770 25-608); experiment: phage ELISA
Description: (§1) Phage ELISA—Phage clones (˜10¹¹ phage) were added to plates coated with rat, rabbit or human albumin. The microtiter plate was washed with wash buffer and bound phage were detected with HRP/Anti-M13 Conjugate. The amount of HRP bound was measured using ABTS/H₂O₂ substrate and monitoring the change at 405 nm.

rat albumin, sequence (P02770 25-608 limits assumed): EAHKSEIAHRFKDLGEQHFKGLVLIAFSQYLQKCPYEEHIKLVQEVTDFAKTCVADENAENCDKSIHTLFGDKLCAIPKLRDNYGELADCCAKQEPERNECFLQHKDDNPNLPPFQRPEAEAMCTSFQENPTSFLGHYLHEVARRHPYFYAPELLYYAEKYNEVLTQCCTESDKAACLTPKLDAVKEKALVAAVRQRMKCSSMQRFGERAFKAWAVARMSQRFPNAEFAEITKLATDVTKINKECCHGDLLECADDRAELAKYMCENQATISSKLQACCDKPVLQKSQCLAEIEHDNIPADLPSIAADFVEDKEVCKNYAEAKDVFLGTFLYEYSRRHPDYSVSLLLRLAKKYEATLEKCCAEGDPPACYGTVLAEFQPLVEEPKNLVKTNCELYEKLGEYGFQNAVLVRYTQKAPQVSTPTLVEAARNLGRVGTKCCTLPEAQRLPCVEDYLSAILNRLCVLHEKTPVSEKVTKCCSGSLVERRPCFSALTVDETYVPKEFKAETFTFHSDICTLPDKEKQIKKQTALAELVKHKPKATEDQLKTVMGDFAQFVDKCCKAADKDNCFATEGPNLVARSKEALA

Binder | binding result
LAEMCYFPGICWMSA (phage clone, Library HBC) [HBC-H7] | no binding
RMPASLPCYWETICYESSEQ (phage clone, Library HB) [HB-H16] | no binding
RAPERWVCYWEGICFDRYEQ (phage clone, Library HB) [HB-H1] | no binding
DMCYFPGICFN (phage clone, Library HC) [HC-H18] | no binding
RTAESLVCYWPGICFAQSER (phage clone, Library HB) [HB-H18] | no binding
DICYIPGICWM (phage clone, Library HC) [HC-H6] | no binding
GMCYFPGICWA (phage clone, Library HC) [HC-H4] | no binding
ETCYFPGICWL (phage clone, Library HC) [HC-H12] | no binding
KLCYFPGICWS (phage clone, Library HC) [HC-H2] | no binding
DMCYFPGICWL (phage clone, Library HC) [HC-H13] | no binding

molecular target: rabbit albumin (rabbit, UniProt P49065 25-608); experiment: phage ELISA
Sequence (P49065 25-608 limits assumed): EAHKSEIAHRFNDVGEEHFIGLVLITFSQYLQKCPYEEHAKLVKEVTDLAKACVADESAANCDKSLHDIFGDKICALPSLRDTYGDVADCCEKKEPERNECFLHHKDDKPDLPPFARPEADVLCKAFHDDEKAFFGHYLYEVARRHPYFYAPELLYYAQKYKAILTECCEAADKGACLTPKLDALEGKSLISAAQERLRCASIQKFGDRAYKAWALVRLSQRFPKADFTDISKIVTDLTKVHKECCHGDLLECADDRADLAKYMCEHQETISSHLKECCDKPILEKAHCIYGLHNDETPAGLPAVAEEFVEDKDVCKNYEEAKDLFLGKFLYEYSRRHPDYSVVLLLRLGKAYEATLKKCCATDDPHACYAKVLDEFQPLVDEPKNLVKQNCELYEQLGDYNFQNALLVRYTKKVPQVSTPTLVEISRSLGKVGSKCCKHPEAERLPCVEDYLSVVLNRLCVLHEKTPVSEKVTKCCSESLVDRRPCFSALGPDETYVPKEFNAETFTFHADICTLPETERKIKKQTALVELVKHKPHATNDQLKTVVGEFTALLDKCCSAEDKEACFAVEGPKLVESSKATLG
Description: as §1

Binder | binding result
LAEMCYFPGICWMSA (phage clone, Library HBC) [HBC-H7] | no binding
DICLPVWGCLW (phage clone, Library RC) [RC-R12] | no binding
NWDLCFPDWGCLWDD (phage clone, Library RBC) [RBC-R8] | no binding
MFDLCLPKWGCLWGN (phage clone, Library RBC) [RBC-R12] | no binding
FEDLCVVRWGCLWGD (phage clone, Library RBC) [RBC-R6] | no binding
ERQMEDFCLPQWGCLWGDGV (phage clone, Library RB) [RB-R1] | no binding
RMPASLPCYWETICYESSEQ (phage clone, Library HB) [HB-H16] | no binding
DTCEDLVRLGLECWA (phage clone, Library RD) [RD-R5] | no binding
NTCADLVRLGLECWA (phage clone, Library RD) [RD-R7] | no binding
RAPERWVCYWEGICFDRYEQ (phage clone, Library HB) [HB-H1] | no binding
DMCYFPGICFN (phage clone, Library HC) [HC-H18] | no binding
DICLPVWGCLW (phage clone, Library RC) [RC-R18] | no binding
RTAESLVCYWPGICFAQSER (phage clone, Library HB) [HB-H18] | no binding
QRQVVDFCLPQWGCLWGDGS (phage clone, Library RB) [RB-R14] | no binding
DICYIPGICWM (phage clone, Library HC) [HC-H6] | no binding
GMCYFPGICWA (phage clone, Library HC) [HC-H4] | no binding
MDDLCLPNWGCLWGD (phage clone, Library RBC) [RBC-R2] | no binding
QRQIMDFCLPHWGCLWGDGF (phage clone, Library RB) [RB-R10] | no binding
MWDVCFPDWGCLWDV (phage clone, Library RBC) [RBC-R15] | no binding
DTCSDLVGLGLECWA (phage clone, Library RD) [RD-R1] | no binding
SEDFCLPVWGCLWED (phage clone, Library RBC) [RBC-R9] | no binding
WEDLCLPDWGCLWED (phage clone, Library RBC) [RBC-R5] | no binding

Binder | binding result
FEDFCLPNWGCLWGS (phage clone, Library RBC) [RBC-R4] | no binding
ETCYFPGICWL (phage clone, Library HC) [HC-H12] | no binding
QMQMSDFCLPQWGCLWGDGY (phage clone, Library RB) [RB-R3] | no binding
WDDICFRDWGCLWGS (phage clone, Library RBC) [RBC-R7] | no binding
DICLPVWGCLW (phage clone, Library RC) [RC-R10] | no binding
KLCYFPGICWS (phage clone, Library HC) [HC-H2] | no binding
DSCGDLLRLGLECWA (phage clone, Library RD) [RD-R6] | no binding
DFDLCLPDWGCLWDD (phage clone, Library RBC) [RBC-R10] | no binding
VWDLCLPQWGCLWDE (phage clone, Library RBC) [RBC-R11] | no binding
DTCDDLVQLGLECWA (phage clone, Library RD) [RD-R11] | no binding
DICLPVWGCLW (phage clone, Library RC) [RC-R2] | no binding
EFDLCLPTWGCLWED (phage clone, Library RBC) [RBC-R13] | no binding
DMCYFPGICWL (phage clone, Library HC) [HC-H13] | no binding
DICLPVWGCLW (phage clone, Library RC) [RC-R3] | no binding
EEDVCLPVWGCLWEG (phage clone, Library RBC) [RBC-R20] | no binding
MDDICLHHWGCLWDE (phage clone, Library RBC) [RBC-R1] | no binding
EWDVCFPAWGCLWDQ (phage clone, Library RBC) [RBC-R18] | no binding
DICLPVWGCLW (phage clone, Library RC) [RC-R1] | no binding
QRLMWEICLPLWGCLWGDGL (phage clone, Library RB) [RB-R5] | no binding
GRQVVDFCLPKWGCLWEEGL (phage clone, Library RB) [RB-R2] | no binding
KSRMGDFCLPEWGCLWGDEL (phage clone, Library RB) [RB-R9] | no binding

molecular target: human albumin (human, UniProt P02768 25-609); experiment: phage ELISA
Description: as §1

Binder | binding result
DICLPVWGCLW (phage clone, Library RC) [RC-R12] | no binding
NWDLCFPDWGCLWDD (phage clone, Library RBC) [RBC-R8] | no binding
MFDLCLPKWGCLWGN (phage clone, Library RBC) [RBC-R12] | no binding
QGYMVDFCLPRWGCLWGDAN (phage clone, Library RB) [RB-R12] | no binding
FEDLCVVRWGCLWGD (phage clone, Library RBC) [RBC-R6] | no binding
ERQMEDFCLPQWGCLWGDGV (phage clone, Library RB) [RB-R1] | no binding
DTCEDLVRLGLECWA (phage clone, Library RD) [RD-R5] | no binding
NTCADLVRLGLECWA (phage clone, Library RD) [RD-R7] | no binding
QRPIMDFCLPKWGCLWEDGF (phage clone, Library RB) [RB-R7] | no binding
DICLPVWGCLW (phage clone, Library RC) [RC-R18] | no binding
ERQMVDFCLPKWGCLWGDGF (phage clone, Library RB) [RB-R11] | no binding
QRQVVDFCLPQWGCLWGDGS (phage clone, Library RB) [RB-R14] | no binding
MDDLCLPNWGCLWGD (phage clone, Library RBC) [RBC-R2] | no binding
RWQTEDVCLPKWGCLFGDGV (phage clone, Library RB) [RB-B1] | no binding
QRQIMDFCLPHWGCLWGDGF (phage clone, Library RB) [RB-R10] | no binding
MWDVCFPDWGCLWDV (phage clone, Library RBC) [RBC-R15] | no binding
QRHMMDFCLPKWGCLWGDGY (phage clone, Library RB) [RB-R4] | no binding
KMGRVDFCLPKWGCLWGDEL (phage clone, Library RB) [RB-R13] | no binding
DTCSDLVGLGLECWA (phage clone, Library RD) [RD-R1] | no binding
QSQLEDFCLPKWGCLWGDGF (phage clone, Library RB) [RB-R15] | no binding
SEDFCLPVWGCLWED (phage clone, Library RBC) [RBC-R9] | no binding
WEDLCLPDWGCLWED (phage clone, Library RBC) [RBC-R5] | no binding

Binder | binding result
FEDFCLPNWGCLWGS (phage clone, Library RBC) [RBC-R4] | no binding
QGGMGDFCLPQWGCLWGEDL (phage clone, Library RB) [RB-R17] | no binding
QMQMSDFCLPQWGCLWGDGY (phage clone, Library RB) [RB-R3] | no binding
WDDICFRDWGCLWGS (phage clone, Library RBC) [RBC-R7] | no binding
DICLPVWGCLW (phage clone, Library RC) [RC-R10] | no binding
DSCGDLLRLGLECWA (phage clone, Library RD) [RD-R6] | no binding
EWDVCLPHWGCLWDG (phage clone, Library RBC) [RBC-R16] | no binding
DFDLCLPDWGCLWDD (phage clone, Library RBC) [RBC-R10] | no binding
VWDLCLPQWGCLWDE (phage clone, Library RBC) [RBC-R11] | no binding
DTCDDLVQLGLECWA (phage clone, Library RD) [RD-R11] | no binding
DICLPVWGCLW (phage clone, Library RC) [RC-R2] | no binding
EFDLCLPTWGCLWED (phage clone, Library RBC) [RBC-R13] | no binding
DICLPVWGCLW (phage clone, Library RC) [RC-R3] | no binding
EEDVCLPVWGCLWEG (phage clone, Library RBC) [RBC-R20] | no binding
MDDICLHHWGCLWDE (phage clone, Library RBC) [RBC-R1] | no binding
EWDVCFPAWGCLWDQ (phage clone, Library RBC) [RBC-R18] | no binding
DICLPVWGCLW (phage clone, Library RC) [RC-R1] | no binding
QRLMWEICLPLWGCLWGDGL (phage clone, Library RB) [RB-R5] | no binding
QGDFWDICLPRWGCLSGEGY (phage clone, Library RB) [RB-B10] | no binding
GRQVVDFCLPKWGCLWEEGL (phage clone, Library RB) [RB-R2] | no binding
KSRMGDFCLPEWGCLWGDEL (phage clone, Library RB) [RB-R9] | no binding

From patent publication US20040253247A1 (Genentech, published 2004)
